Our source for the ligand-dependent transcriptional activation by Gal4 DBD fusion of RAR on a Gal4-dependent luciferase reporter, A549 cells, 100 nM atRA values is US7132258.

The target of the experiment is Gal4 DBD fusion of the LBD of hRARα (human). Description: cell-based or functional assay.

In turn, “full-length RAC3 expressed from pCMX.F.RAC3 (FLAG and HA epitope at the N-terminus) (from UniProt Q9Y6Q9 2-1424)” had a ligand-dependent transcriptional activation by Gal4 DBD fusion of RAR on a Gal4-dependent luciferase reporter, A549 cells, 100 nM atRA of 2 fold.
